No end group written: not given here. *: point of attachment. Biotin = O=C1N[C@H]2[C@H](CS[C@H]2CCCCC(=O)*)N1
Molecular target: T1, E. coli replicative helicase DnaB, purified (E. coli, UniProt P0ACB0 1-471)
T1 construct: replicative helicase DnaB, E. coli; Construct and purification are in the Supplemental Experimental Procedures; also called E. coli DnaB
Experiment: not stated; apparent KD (equilibrium dissociation constant), Figure S5; the method is not told in the text shown (SPR is the only quantitative binding method that the paper names)
Settings: both partners purified

T1 sequence (P0ACB0 whole entry): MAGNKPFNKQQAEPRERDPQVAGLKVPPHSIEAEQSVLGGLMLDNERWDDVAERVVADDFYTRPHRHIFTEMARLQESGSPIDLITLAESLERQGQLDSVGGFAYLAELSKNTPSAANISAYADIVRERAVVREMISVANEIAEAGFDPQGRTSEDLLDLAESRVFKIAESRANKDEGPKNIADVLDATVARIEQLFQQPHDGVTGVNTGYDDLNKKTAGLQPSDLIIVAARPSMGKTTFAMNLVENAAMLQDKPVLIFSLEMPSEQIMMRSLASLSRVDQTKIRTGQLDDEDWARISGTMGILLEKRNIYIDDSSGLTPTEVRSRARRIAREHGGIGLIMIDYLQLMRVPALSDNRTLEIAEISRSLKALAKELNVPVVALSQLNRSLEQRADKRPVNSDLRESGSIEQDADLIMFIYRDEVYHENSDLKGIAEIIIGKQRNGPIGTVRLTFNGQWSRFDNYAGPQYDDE

B1: C33^Rep peptide (synthetic peptide corresponding to the C-terminal 33 residues of Rep) (peptide, UniProt P09980 641-673, looked up)
peptide: Biotin-EQERKVVSAEERMQKGQSHLANLKAMMAAKRGK
notes: C-terminal 33 residues of Rep helicase, E. coli; also called the Rep C terminus; source: synthetic peptide; not shown: biotin tag, N-terminal, kept
B1 was tested, and the Kd was less than 100 nM.

From article PMC2807033, “Rep Provides a Second Motor at the Replisome to Promote Duplication of Protein-Bound DNA” (Molecular Cell, 2009)
